# From the nanobody polyreactivity screen of Harvey et al. (2022)
# Assay: yeast display, Sf9 membrane polyspecificity reagent, FACS + sequencing; frameworks hold sequencing errors
# In short: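 Polyreactivity labels are assigned by the sorting gate from which each nanobody was recovered. The gates were low and high (top ~1%), set on anti-HA fluorescence for expression and streptavidin fluorescence for reagent binding. Before sorting, galactose-induced (36–48 hours) yeast display cells were stained for 1 hour at 4 °C with 10% biotinylated, detergent-solubilized Sf9 membrane reagent.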
row,Sequence,polyreactivity (PSR sort gate)
1,QVQLVESGGGLVQAGGSLRLSCAASGFIFTDYAMGWYRQAPGKEREFVAAIDWSGGNTYYADSVKGRFTISRDNAKNTVYLLMNSLKPEDTAVYYCADSGSAREYDYWGQGTQVTVSS,low polyreactivity
2,QVQLVESGGGLVQAGGSLRLSCAASGRIFGFYTMGWYRQAPGKERELVAGISRGGSTYYADSVKGRFTISRDNAKNTGYVQMNSLNPEDTAVYDCAADLGWGYEYWGQGTQVTVSS,low polyreactivity
3,QVQLVESGGGLVQAGGSLRLSCAASGRIFNRYAMGWYRQAPGKERELVAAISASGDNTYYADSVKGRFTISRDNAKKNVYLQMNSLKPEDTAVYYCAARYYTYLHFRMYYWGQGTQVTVSS,high polyreactivity
4,QVQLVESGGGLVQAGGSLRLSCAASGLIFPRYTMGWYRQAPGKERELVAAIRGTGGSTYYADSVKGRFTISRDNPKNTVYLQLNSLKPEDTAVYYCATRGKSHGQQFNYWGQGTQVTVSS,high polyreactivity
5,QVQLVESGGGLVQAGCSLRLSCAASGFIFVGKDMGWYRQAPGKERELVAAISSGGTTNYADSVKGRFTISRDNAKNTVYLQMNSLKPEDTAVYYCAADFDYRQGYDSFHLDYWGQGTQVTVSS,low polyreactivity
6,QVQLVESGGGLVQAGGSLRLSCAASGITYPRYTMGWYRQAPGKERQLVAAITRRSGSTNYADSVKGRITISRDNAKNTVYLQMNSLKPEDTAVYYCAAVVQVYDRGYHVIAKYYYWGQGTQVTVSS,high polyreactivity
7,QVQLVESGGGLVQAGGSLSLICADTGLTFRVYAMGWYRQAPGKERELVAAISSRGGSTYYADSVKGRFTISRDNAKYTVLLQMNSLKPEDTAVYDCYARGQGGYWGQGTQVTVSS,high polyreactivity
8,QVQLVESGGGLVQAGGSLRLSCAASGGTFAVNAMGWYRQAPGKEREFVAAISSRGSTSYADSVKGRFTISRDNAKNTVYLQMNSLKPEDTAVYYCAKRQGYWFDYWGQGTQVTVSS,high polyreactivity
9,QVHLVESGGGLVQAGGSLRLSCAASGRIFGDNAMGWYRQAPGKERELVAAITVNAGSTHYADSVKGRFTISRDNAKNTDYLQMNSLKPEDTAVYYCAKQTAPVTGVGPYYYWGQGTQVTVSS,low polyreactivity
10,QVHLVESGGRLVQAGGSLRLSSAASGSIFVKNAMGWYRQAPGKERELVATISSGGSTYYADSVKGRFTISRDNAKNTVYLQMNSLKPEDTAVYYSNTASYVSWYVHYYYWGVGTQVTVSS,low polyreactivity
11,QVQLVESGGGLVQAGGSLRLSCAASGRIFLWYAMGWSRQAPGKERELVAGISSGASTYYADSVKGRFTISRDNAKNTVYLQMNSLKPEDTAVYYCAAPYDRLTGWSRYDYWGQGTQVTVSS,high polyreactivity
12,QVQLVESGGGLVQAGVSLRLSCAASGSTFTANAMGWYRQAPGKERELVAAITNSDGSTYYADSVKGRFTISRDNAKNTVYLQINSLKPEDTAVYYCAKDYYACFWEMDYWGQGTQVTVSS,low polyreactivity
13,QVQLVESGGGLVQAGGSLRLSCAASGRTFYSYAMGWYRQAPGKERELVASITSTGSTYYADSVKGRFTISRDNAKNTVYLQMNSLKPEDTAVYYCAARRQPRYSQRSTYYYWGQGTQVTVSS,high polyreactivity
14,QVQLVESGGGLVQAGGSLRLSCAASGLTFTRYTMGWYRQAPGKERELVAAITSSGGSTYYADSVKGRFTISRDNAKNTVYLQMNSLKPEDTAVYYCAARYPGTRGDGYWGQGTQVTVSS,high polyreactivity
15,QVQLVESGGGLVQAGGSLRLSCAASGIIFSLKTMGGYRQAPGKERELVAAISSSGGSTYYADSVKGRFTISRDNAKNCVYVQMNSLKPEDTAVYYCARRYAPNTSLTFYYWGQGTQVTVSS,low polyreactivity
16,QVQLVESGGGLVQAGGSLRLSCAASGFTFYRNPMGWYRQAPGKERELVAAISARGVSTYYADSVKGRFTISRDNAKNTVYLQMNSLKPEDTAVYYFSAVNYIYTGGGTYYYWGQGTQVTVSS,high polyreactivity
17,QVQLVESGGGLVQAGGSLRLSCAASGGTLDYYVMAWYRQAPGKERELVAAISTNGGSTNYADSVKGRFTISRDNAKNTVYLQMNSLKPEDTAVYYCAATSDVYVFLEFDYWGQGTQVTVSS,low polyreactivity
18,QVQLVESGGGLVQAGGSLRLSCAASGRIFAYYAMGWYRQAPGKERELVATINYSGTSTYYADSVKGRFTISRDNAKNTVYLQMNSLKPEDTAFYYCAADLTSRLLWYHIERFDYWGQGTQVTVSS,high polyreactivity
19,QVQLVESGGGLFQAGGRLRLSCAASGRIFWLYAMGWYRQAPGKERELVAAITGIGGSTYYADSVKGRFTISRDNAKNTVYLQMNSLKPEDTAVYYCAARSPATYPSMGYWGQGTQGTVSS,low polyreactivity
20,QVQLVESGGGLVQAGGSLRLSCAASGGLFIRYGMGWYRPAPGKERELVAGIDSGGGTNYADSVKGRFTISRDNAKNTVYLQMNSLKPEDTAVYYCARRQGYGFLYGRPYGYWGQGTQVTVSS,low polyreactivity
21,QDQLVESGGGLVQAGGSLRLSCAASGFTFNIYAMGWYRQAPGKERELVAAISWSGGRTNYADSVKGRFTISRDNAKKTVYLQMNSLKPEATAVYYCAVRYKSWYGFNYWGQGTQVTVSS,high polyreactivity

row,Sequence,polyreactivity (PSR sort gate)
1,QVQLVESGGGLVQAGGSLRLSCAASGSTFYRNAMGWYRQAPGKERELVATINRGGSTYYADSVKGRFTISRDNAKNTVYLQRNSLNPEDTAVYYCAKDSYYAGRFIYTPRAKYGYWGQGTQVTVSS,high polyreactivity
2,QVQLVESGGGLVQAGGSLRLSCAASGNIFPGYAMGWYRQAPGKERELVAGISGSGGRTYYADSVKGRFTISRDNAKITVYLQMNSLKPEDSAVYYCAAEFKYYYRFEYDYWGQGTQVTVSS,low polyreactivity
3,QVQLVESGGGLVQAGGSLRLSCAASGITFRWYTMGWYRQAPGKERELVAAITSSGARTYYADSVKGRFTISRDNAKNTVYLQMNSLKPEDTAVYYCAATQTRFAAKDEYWGQGTQVTVSS,high polyreactivity
4,QVQLVESGGGLVQAGGSLRLSCAASGSIFRAYAMGWYRQAPGKERELVAAITWSGGRTFYADSVKGRFTISRDNAKNTVYLQMNSLKPEDTAVYYCAAFVYQRGRIYDYWGQGTQVTVSS,high polyreactivity
5,QVQLVESGGGLVQAGGTLRLSCAASGLTFGYNAMVWYRQAPRKERELVATISYSGGRTYYADSVKGRFTISRDTAKNTVYLQMNSLKPEDTAVYSCAARRASGPYGFGYWGQGTQVTVSS,high polyreactivity
6,QVQLVESGGGLVQAGGSLRFSCAASGSILSKNAMGWYRQAPGKERELVAAISSGGSTYYADSVKGRFTISRDKAKNTVYLQLNSLKPEDTAVYYCATYCTSVAYHLYYWGQGTQVTVSS,low polyreactivity
7,QVQLVESGGGLVQAGGSLRLSCAASGSIFTGYAMGWYRQAPGKERELVAAISNSGTATYYADSVKGRFTISRDNAKNTVYLQMNSLKPEDSAVYYCNTVGHRWLSDDDYWGQGTQVTVSS,low polyreactivity
8,QVQLVESGGGLVQAGGSLRLSCAASGGIFDSYAMGWYRQAPGKERELVADITWSGGSTYYADSVKGRFTISRDNAKNTVYLQMNSLKPEDTAVYYCAADDGSQYYFDSPHEYDYWGQGTQVTVSS,low polyreactivity
9,QVQLVESGGGLVQAGGSLRLSCAASGGTFGGYAMGWYRQAPGKERELVAVISQSGGTTYYADSVKGRFTISRDNAKNTVYLQMNSLKPEDTAVYYCNAYTYYKRFGYWGQGTQVTVSS,high polyreactivity
10,QVQLVESGGGLVQAGGSLRLSCAASGFIFRYNAMGWYRQAPGKEREFVAAISWGGGRTYYADSVKGRFTISRDNAKNTVYLQMNSLKPEDTAVYYCAAVSPHNRYGYKYDYWGQGTQVTVSS,high polyreactivity
11,QVQLVESGGGLVQAGGSLRLSCAASGSTLVGYVMGWYRQAPGKERELVAAITTVGSTYYADSVKGRFTISRDNAKNTVYLQMNSLKPEDTAVYYCAADRSDLAEEGYAGYDYWGQGTQVTVSS,low polyreactivity
12,QVQLVESGGGLVQAGGSLRLSCAASGRIFGNYAMGWYRQAPGKERELVAAISGGGSTYYADSVKGRFTISRDNAKNTVYLQMNSLKPEDTAVYYCAARFLWSVFGHKGGYWGQGTQVTVSS,low polyreactivity
13,QVQLVESGGGLVQAGVSLRLSCAASGGTIVGNAMGWYRQAPGKERELVAAMSTNSGSTYYADSVKGRFTISRDNAKNTVYLQMNSLKPEDTAVYYFATRNSSKRRGYYYWGQGTQVTVSS,high polyreactivity
14,QVQLVESGGGLVQAGGSLRLSCAASGITFIGYVMGWYRQAPGKERELVAAISRSGASTYYADSVKGRFTISRDNAKNTVYLQMNSLKPEDTAVYYCATVRYHPAYYYWGQGTQVTVSS,high polyreactivity
15,QVQLVESGGGLVQAGGSLSLSCAASGRTFLYNAMGWYRQAPGKERELVAGITQSGSSTYYADSVKGRFTISRDNAKNTVYLQMNSMKPEDTAVYYCAKVLYRRGYKFDYWGQGTQVTVSS,low polyreactivity
16,QVQLVESGGGLVQAGGSLRLSCAASGSISAPNAMGWYRQAPGKERELVATINSGGRTNYADSVKGRFTISRDNSKNTVYLQMNSLKPEDTAVYYCNTVFRGAYTYGDVSKYDYWGQGTQVTVSS,low polyreactivity
17,QVQLVESGGGLVQAGGSLRLSCAASGYIFKRYAMGWYRQAPGKERELVAAISSRGGSTYYADSVKGRFTISRDNAKNTVYLQMNSLKPEDTAVYYCAAVSWFRNYYWGQGTQVTVSS,high polyreactivity
18,QVQLVESGGALVQAGGSLRLSCAASGFIFHYYAMGWYRQAPGKERELVAAISKTGGSTYYADSVKGRFTISRDNAKNTVYLQMNSLKPEDTAVYYCAVARSAYYRGNHWGQGTQVTVSS,high polyreactivity
19,QVQLVESGGRLVQAGGSLRLSCAASGFTYSPYAMGWYRQAPWKESELVAAITSSGGSTYYADSVKGRFTISRDNANNSVYLQMKSLKPEDTAVYYSAADYGYKYYWRYGYWGQGTQVTVSS,high polyreactivity
20,QVQLVESGGGLVQAGGSLPLSCAASGIIFSYNAKGWDRQAPGKERELDAAIRENGGSTYYADSVKGRFTISRDNAKNTVYLQMNSLKPEDTAGYYCAVATSYYAGYEYDYWGQGTQVTVSS,low polyreactivity
